This note sets out measurements from PMC11099347 (Cell Genomics, 2024).

This assay concerns the target T1, GST-tagged wild-type NRDE2 (human, UniProt Q9H7Z3 1-1164).
T1 sequence: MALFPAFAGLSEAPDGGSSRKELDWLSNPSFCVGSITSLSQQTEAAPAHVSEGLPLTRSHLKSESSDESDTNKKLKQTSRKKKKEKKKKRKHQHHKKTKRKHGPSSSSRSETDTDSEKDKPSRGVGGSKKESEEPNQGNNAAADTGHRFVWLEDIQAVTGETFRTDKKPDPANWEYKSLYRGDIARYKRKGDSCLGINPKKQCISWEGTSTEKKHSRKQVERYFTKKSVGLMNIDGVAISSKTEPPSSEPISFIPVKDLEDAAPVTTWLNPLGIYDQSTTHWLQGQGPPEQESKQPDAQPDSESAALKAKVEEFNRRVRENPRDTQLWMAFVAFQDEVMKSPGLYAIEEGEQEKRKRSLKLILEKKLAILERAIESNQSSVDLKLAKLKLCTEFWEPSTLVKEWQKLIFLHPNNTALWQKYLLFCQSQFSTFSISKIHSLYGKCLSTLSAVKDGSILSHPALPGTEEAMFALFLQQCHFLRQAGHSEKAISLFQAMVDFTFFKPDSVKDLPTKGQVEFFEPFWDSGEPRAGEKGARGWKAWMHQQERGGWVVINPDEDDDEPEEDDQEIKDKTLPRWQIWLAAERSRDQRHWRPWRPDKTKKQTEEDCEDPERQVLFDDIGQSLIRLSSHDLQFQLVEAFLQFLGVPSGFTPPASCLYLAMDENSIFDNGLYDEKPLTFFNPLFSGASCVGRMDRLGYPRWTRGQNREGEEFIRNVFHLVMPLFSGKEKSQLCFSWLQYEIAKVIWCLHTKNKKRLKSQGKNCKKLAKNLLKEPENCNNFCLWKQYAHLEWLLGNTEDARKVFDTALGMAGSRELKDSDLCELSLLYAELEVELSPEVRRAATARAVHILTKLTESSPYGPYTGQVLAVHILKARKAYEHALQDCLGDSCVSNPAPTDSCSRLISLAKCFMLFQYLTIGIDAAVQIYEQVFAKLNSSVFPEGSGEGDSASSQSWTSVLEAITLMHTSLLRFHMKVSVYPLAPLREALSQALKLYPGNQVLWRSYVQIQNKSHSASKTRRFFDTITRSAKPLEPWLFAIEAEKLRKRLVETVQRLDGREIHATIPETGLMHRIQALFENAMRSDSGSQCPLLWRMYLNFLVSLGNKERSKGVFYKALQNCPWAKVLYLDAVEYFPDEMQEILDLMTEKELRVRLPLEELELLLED
As to the kind of experiment: pull-down.

B1: His-tagged CK2A2 (natural protein)
chain: MPGPAAGSRARVYAEVNSLRSREYWDYEAHVPSWGNQDDYQLVRKLGRGKYSEVFEAINITNNERVVVKILKPVKKKKIKREVKILENLRGGTNIIKLIDTVKDPVSKTPALVFEYINNTDFKQLYQILTDFDIRFYMYELLKALDYCHSKGIMHRDVKPHNVMIDHQQKKLRLIDWGLAEFYHPAQEYNVRVASRYFKGPELLVDYQMYDYSLDMWSLGCMLASMIFRREPFFHGQDNYDQLVRIAKVLGTEELYGYLKKYHIDLDPHFNDILGQHSRKRWENFIHSENRHLVSPEALDLLDKLLRYDHQQRLTAKEAMEHPYFYPVVKEQSQPCADNAVLSSGLTAAR
As to B1, the binding result is on record as “binds”.

B2: His-tagged CK2B (natural protein)
chain: not shown
For B2, the binding result was “binds”.
